# Assay results from patent US20170275344A1, “POLYPEPTIDES AND USES THEREOF AS A DRUG FOR TREATMENT OF AUTOIMMUNE DISORDERS” (Compugen Ltd., priority 2014, published 2017).
# B1: C1ORF32 ECD-Fc (SEQ ID NO:42): fusion protein of human C1ORF32 ECD fused to mouse immunoglobulin Fc (human-mouse fusion protein) (protein)
# chain: LQVTVPDKKKVAMLFQPTVLRCHFSTSSHQPAVVQWKFKSYCQDRMGESLGMSSTRAQSLSKRNLEWDPYLDCLDSRRTVRVVASKQGSTVTLGDFYRGREITIVHDADLQIGKLMWGDSGLYYCIITTPDDLEGKNEDSVELLVLGRTGLLADLLPSFAVEIMGSENLYFQGSGEPRGPTIKPCPPCKCPAPNLLGGPSVFIFPPKIKDVLMISLSPIVTCVVVDVSEDDPDVQISWFVNNVEVHTAQTQTHREDYNSTLRVVSALPIQHQDWMSGKEFKCKVNNKDLPAPIERTISKPKGSVRAPQVYVLPPPEEEMTKKQVTLTCMVTDFMPEDIYVEWTNNGKTELNYKNTEPVLDSDGSYFMYSKLRVEKKNWVERNSYSCSVVHEGLHNHHTTKSFSRTPGK
# modifications: Fusion protein human C1ORF32-ECD fused to mouse IgG2a Fc
# Columns and labels:
# SJL/J mice = assay: Trafficking of transferred PLP139-151 sensitized cells into the CNS (flow cytometry); format: in vivo, mouse
# Experimental: PLP139-151 sensitized cells were generated as described in Materials and Methods (cell counts in the reactivation culture are presented in Table 2) and labeled with PBSE (4 uM) before transfer to naïve mice. In study “Cgen data” (FIG. 12), disease was induced in recipient mice (n=10 per group) by i.v. transfer of 5×10^6 blast cells to each recipient mouse. A relatively large number of transferred cells were used in order to allow detection of the transferred cells by flow cytometry analysis at the end of the study. Mice were split into Control Ig and C1ORF32 ECD-Fc (SEQ ID NO:42) treatment groups, receiving 100 ug/dose intraperitoneal injection three times per week for 2 weeks. On Day +14 after cell transfer, 5 representative mice from each group were selected for analysis of trafficking of transferred cells into the CNS. Spleens, cervical lymph nodes, and CNS were collected, and the number of PBSE- or PBSE+/CD45+/CD3+/CD4+ T cells was analyzed by flow cytometric analysis.
# An additional experiment (designated “MYC48 FACS”, FIG. 13) was performed using an alternative staining follow-up approach. SJL-Actin/GFP mice were primed with PLP139-151/CFA, and sensitized blast cells were generated as described in Materials and Methods (cell counts in the reactivation culture are presented in Table 2). On Day +3 of culture, PLP139-151 sensitized cells were collected and labeled with PBSE (4 uM). Disease was induced in the recipient mice (n=10 per group), by i.v. transfer of 5×10^6 blast cells/mouse. Beginning at the time of cell transfer, mice were treated with Control Ig or C1ORF32 ECD-Fc (SEQ ID NO:42) (100 ug/dose i.p. three times per week for 2 weeks). […] To evaluate C1ORF32 ECD-Fc (SEQ ID NO:42) effect on immune cell trafficking to the CNS, spleens, cervical lymph nodes, and CNS cells collected form 5 mice on day +10 post cell transfer, and the number of transferred CD45hi PBSE+ or GFP+ cells was analyzed by flow cytometry. […]
# male DBA-1 mice = assay: Established collagen-induced arthritis (CIA), therapeutic regimen; format: in vivo, mouse
# Experimental: Bovine type II collagen (CII) (RUNMC in house production, batch 03-04-08) at a concentration of 2 mg/ml in acetic acid 0.05M was emulsified in equal volumes of Freund's complete adjuvant (2 mg/ml of Mycobacterium tuberculosis strain H37Ra; Difco, Detroit, Mich.).
# On day 0, 10-12 week old male DBA-1 mice (Janvier Elevage, France) (n=95) were immunized i.d. at the base of the tail with 100 μg of bovine CII. On day 21, mice received an intraperitoneal booster injection of 50 μg of CII dissolved in phosphate buffered saline (PBS), and the onset of arthritis occurred a few days after this booster.
# Joint inflammation in each paw was scored visually, using a scale of 0-2 per paw with a maximal score of 8 per animal: 0=non inflamed, 1=mild inflammation, 1.5=marked inflammation, and 2=severe inflammation. Scoring was performed three times a week.
# Treatment was started in established CIA early after onset of disease (i.e. therapeutic regimen), when the macroscopic scores per animal were between 0.25 and 1.25 (on a scale of 0-8). The i.p. injections were given three times per week for two weeks, after which the study was terminated and mice were terminally bled to collect serum. Thereafter, the knee and ankle joints were collected and stored in formalin. Histology was scored for inflammation and destruction on an arbitrary scale of 0-3, for five different parameters: • Joint inflammation • Cartilage proteoglycan (PG) depletion • Chondrocyte death • Cartilage erosion • Bone erosion
# 1. Negative control: PBS 2. Negative control mIgG2A (Bioxcell, BE0085): 10 mg/kg 3. C1ORF32 ECD-Fc (SEQ ID NO:42): 10 mg/kg 4. C1ORF32 ECD-Fc (SEQ ID NO:42): 5 mg/kg 5. Positive control: Enbrel (Wyeth, F01421) 5 mg/kg
# Joints were fixed for at least 4 days in 4% formaldehyde, decalcified in 5% formic acid, and subsequently dehydrated and embedded in paraffin. Standard frontal sections of 7 μm were mounted on SuperFrost slides (Menzel-Glaser, Braunschweig, Germany). Haematoxylin and eosin (H&E) staining was performed to study joint inflammation. The severity of inflammation in the joints was scored on a scale of 0-3 (0=no cells, 1=mild cellularity, 2=moderate cellularity, and 3=maximal cellularity). To study proteoglycan (PG) depletion from the cartilage matrix, sections were stained with safranin O (SO) followed by counterstaining with fast green. Depletion of PG was determined using an arbitrary scale of 0-3, ranging from normal, fully stained cartilage to destained cartilage, fully depleted of PGs. Chondrocyte death was scored on a scale of 0-3 ranging from no loss of chondrocyte nuclei to complete empty cartilage surface. The degree of cartilage surface erosion was scored on a scale of 0-3, ranging from no damage to complete loss of articular cartilage. Bone destruction was graded separately on a scale of 0-3, ranging from no damage to the complete loss of bone structure. Histopathological changes in the joint were scored on three semiserial sections of the joint spaced 70 μm apart. Scoring was performed in a blindfolded manner.
# Statistical analysis: Disease course data was analyzed using one-way ANOVA with repeated measures, with a Bonferroni's post-test of selected pairs to determine statistical differences between C1ORF32 ECD-Fc (SEQ ID NO:42) and Enbrel treated mice, each as compared to Control Ig (IgG2a) treated group.
molecule,measurement,setting,value
B1,number of transferred CD4+ T cells within the CNS,"SJL/J mice; study Cgen data, treatment from time of cell transfer",decrease
same,number of total or activated transferred T cells in the spleen and cervical lymph nodes,"SJL/J mice; study MYC48 FACS, day +10",No change
same,number of GFP+ and PBSE+ transferred cells in the CNS,"SJL/J mice; study MYC48 FACS, day +10 post cell transfer",decrease
same,clinical (macroscopic) scores of arthritis,male DBA-1 mice; 5 mg/kg i.p. 3x/wk for 2 wks,did not demonstrate any effect
same,clinical (macroscopic) scores of arthritis,"male DBA-1 mice; 10 mg/kg i.p. 3x/wk for 2 wks, p<0.001 vs mIgG2a",significantly reduced the clinical scores of arthritis
same,histological arthritis pathology of ankle joints,"male DBA-1 mice; 10 mg/kg, after two weeks of therapy, did not reach statistical significance",trend of reduced arthritis pathology
same,results over three CIA studies,male DBA-1 mice; three studies,excellent results in two studies and weak results in one study
